Measured values reported in publication PMC7643339.
Values belong to the molecule of their own block, whether it stands above or below them.

Assays:
[1] = molecular target: mouse TLR9 ectodomain, uncleaved (without proteolytic activation) (mouse) (UniProt Q9EQU3); assay: SEC; Superdex 200 10/300, 10 mM Tris pH 7.4, 0.15 M NaCl, no oligonucleotide; last step of the purification
[2] = molecular target: T1, mTLR9-ECD, uncleaved (mouse, UniProt Q9EQU3 26-818); assay: fluorescence anisotropy; 1:1 fit; uncleaved; Anisotropy: 2 or 5 nM Alexa 488 oligo, protein to 100 nM; competition in 10 mM MES pH 6.0, 0.15 M NaCl, room temperature (direct titration buffer not separately)
T1 sequence: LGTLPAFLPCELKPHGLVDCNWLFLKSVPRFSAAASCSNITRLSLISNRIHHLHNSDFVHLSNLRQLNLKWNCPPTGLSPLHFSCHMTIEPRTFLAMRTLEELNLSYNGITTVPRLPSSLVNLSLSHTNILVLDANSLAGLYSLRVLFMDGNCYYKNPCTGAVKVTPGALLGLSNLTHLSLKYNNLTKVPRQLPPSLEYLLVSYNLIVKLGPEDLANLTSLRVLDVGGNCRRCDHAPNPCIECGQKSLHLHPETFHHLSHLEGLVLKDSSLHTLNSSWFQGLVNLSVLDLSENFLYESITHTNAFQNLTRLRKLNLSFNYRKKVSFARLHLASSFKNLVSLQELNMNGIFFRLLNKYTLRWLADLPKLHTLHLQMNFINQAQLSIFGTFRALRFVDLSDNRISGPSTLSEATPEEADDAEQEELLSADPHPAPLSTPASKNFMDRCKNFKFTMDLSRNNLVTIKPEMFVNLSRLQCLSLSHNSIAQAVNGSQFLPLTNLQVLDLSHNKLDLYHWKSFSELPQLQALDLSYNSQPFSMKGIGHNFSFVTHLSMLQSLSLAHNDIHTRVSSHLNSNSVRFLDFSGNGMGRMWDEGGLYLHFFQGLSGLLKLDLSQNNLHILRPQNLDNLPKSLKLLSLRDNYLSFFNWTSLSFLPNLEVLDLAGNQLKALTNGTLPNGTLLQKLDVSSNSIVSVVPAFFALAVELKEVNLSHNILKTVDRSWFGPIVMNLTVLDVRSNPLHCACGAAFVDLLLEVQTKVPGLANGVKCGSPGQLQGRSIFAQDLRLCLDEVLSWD

[3] = molecular target: T2, mTLR9-ECD, GluC-cleaved (mouse, UniProt Q9EQU3 26-818); assay: fluorescence anisotropy; apparent, 1:1 fit; Anisotropy: 2 or 5 nM Alexa 488 oligo, protein to 100 nM; competition in 10 mM MES pH 6.0, 0.15 M NaCl, room temperature (direct titration buffer not separately)
T2 sequence: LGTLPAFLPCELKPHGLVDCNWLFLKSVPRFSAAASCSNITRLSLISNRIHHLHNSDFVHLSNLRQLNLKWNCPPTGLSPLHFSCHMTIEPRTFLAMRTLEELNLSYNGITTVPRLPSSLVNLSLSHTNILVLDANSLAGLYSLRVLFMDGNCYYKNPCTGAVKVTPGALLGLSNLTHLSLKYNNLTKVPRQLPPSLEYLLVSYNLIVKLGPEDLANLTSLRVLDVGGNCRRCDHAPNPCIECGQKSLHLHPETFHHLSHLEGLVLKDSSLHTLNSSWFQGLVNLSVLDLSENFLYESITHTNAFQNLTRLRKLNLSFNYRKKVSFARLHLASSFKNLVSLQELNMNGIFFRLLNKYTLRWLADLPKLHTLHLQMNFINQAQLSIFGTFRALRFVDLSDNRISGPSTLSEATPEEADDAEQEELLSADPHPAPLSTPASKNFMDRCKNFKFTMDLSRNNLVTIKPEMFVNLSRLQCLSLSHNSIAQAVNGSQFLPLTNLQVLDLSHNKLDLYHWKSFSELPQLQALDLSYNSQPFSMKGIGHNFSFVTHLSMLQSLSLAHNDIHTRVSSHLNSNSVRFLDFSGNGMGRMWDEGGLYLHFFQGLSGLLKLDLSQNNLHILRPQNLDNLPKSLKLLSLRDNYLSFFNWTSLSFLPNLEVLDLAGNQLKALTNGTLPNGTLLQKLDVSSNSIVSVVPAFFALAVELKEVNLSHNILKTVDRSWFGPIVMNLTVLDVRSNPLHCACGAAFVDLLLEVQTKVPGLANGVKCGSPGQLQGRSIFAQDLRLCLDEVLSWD

[4] = molecular target: T3, mTLR9-ECD E617A/H642A (site B mutant) (mouse, UniProt Q9EQU3 26-818, E617A;H642A); assay: fluorescence anisotropy; 1:1 fit; reports site A (KA); Anisotropy: 2 or 5 nM Alexa 488 oligo, protein to 100 nM; competition in 10 mM MES pH 6.0, 0.15 M NaCl, room temperature (direct titration buffer not separately)
T3 sequence: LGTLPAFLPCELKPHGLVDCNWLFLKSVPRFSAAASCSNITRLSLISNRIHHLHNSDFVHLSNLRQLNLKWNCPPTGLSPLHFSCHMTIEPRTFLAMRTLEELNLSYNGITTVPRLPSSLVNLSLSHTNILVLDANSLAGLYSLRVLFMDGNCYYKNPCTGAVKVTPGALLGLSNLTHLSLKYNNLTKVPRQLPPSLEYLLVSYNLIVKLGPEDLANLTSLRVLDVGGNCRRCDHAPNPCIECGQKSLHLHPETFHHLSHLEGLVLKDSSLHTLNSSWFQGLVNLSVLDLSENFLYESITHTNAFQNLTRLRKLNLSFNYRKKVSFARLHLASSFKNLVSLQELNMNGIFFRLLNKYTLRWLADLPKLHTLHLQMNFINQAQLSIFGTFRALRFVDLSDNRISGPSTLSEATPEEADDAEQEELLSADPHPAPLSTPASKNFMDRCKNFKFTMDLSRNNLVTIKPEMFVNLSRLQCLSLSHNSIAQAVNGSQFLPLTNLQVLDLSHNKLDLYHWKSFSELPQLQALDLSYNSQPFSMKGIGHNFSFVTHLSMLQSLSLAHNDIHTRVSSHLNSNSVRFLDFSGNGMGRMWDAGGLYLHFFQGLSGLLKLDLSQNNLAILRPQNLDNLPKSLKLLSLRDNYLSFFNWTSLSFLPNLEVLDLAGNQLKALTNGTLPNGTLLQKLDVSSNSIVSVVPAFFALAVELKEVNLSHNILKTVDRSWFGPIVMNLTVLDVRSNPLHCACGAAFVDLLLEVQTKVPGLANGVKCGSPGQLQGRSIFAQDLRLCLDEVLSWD

[5] = molecular target: T2, mTLR9-ECD, GluC-cleaved; assay: fluorescence anisotropy; 1:1 fit; Anisotropy: 2 or 5 nM Alexa 488 oligo, protein to 100 nM; competition in 10 mM MES pH 6.0, 0.15 M NaCl, room temperature (direct titration buffer not separately)
[6] = molecular target: T4, mTLR9-ECD W96A/Y132A (site A mutant) (mouse, UniProt Q9EQU3 26-818, W96A;Y132A); assay: mass photometry; a fraction dimerizes with ligand; Anisotropy: 2 or 5 nM Alexa 488 oligo, protein to 100 nM; competition in 10 mM MES pH 6.0, 0.15 M NaCl, room temperature (direct titration buffer not separately)
T4 sequence: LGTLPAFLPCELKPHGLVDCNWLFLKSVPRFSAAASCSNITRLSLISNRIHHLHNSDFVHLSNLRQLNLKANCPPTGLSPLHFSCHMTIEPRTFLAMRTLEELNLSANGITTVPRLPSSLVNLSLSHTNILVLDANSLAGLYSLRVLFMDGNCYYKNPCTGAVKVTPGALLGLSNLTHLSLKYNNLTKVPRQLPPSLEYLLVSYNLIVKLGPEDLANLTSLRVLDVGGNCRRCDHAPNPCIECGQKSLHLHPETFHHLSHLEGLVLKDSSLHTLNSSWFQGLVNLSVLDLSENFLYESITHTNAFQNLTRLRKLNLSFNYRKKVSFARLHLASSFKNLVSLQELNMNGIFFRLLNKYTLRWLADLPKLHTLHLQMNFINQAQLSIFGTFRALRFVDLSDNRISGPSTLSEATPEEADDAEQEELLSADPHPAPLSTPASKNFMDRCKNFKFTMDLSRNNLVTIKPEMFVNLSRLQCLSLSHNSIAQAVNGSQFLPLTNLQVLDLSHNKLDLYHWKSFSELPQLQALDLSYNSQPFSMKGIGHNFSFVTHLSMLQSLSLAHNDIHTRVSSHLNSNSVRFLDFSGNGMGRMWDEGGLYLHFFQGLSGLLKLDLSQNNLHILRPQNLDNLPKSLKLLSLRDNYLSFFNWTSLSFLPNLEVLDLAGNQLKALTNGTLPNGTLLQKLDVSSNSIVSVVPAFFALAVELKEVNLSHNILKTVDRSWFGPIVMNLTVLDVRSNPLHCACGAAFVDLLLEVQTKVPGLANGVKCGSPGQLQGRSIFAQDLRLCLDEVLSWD

[7] = molecular target: T2, mTLR9-ECD, GluC-cleaved; assay: fluorescence anisotropy; apparent, 1:1 fit; SI text gives 9.2 nM; Anisotropy: 2 or 5 nM Alexa 488 oligo, protein to 100 nM; competition in 10 mM MES pH 6.0, 0.15 M NaCl, room temperature (direct titration buffer not separately)
[8] = molecular target: T2, mTLR9-ECD, GluC-cleaved; assay: competition; vs Alexa 488 1668-12mer; Anisotropy: 2 or 5 nM Alexa 488 oligo, protein to 100 nM; competition in 10 mM MES pH 6.0, 0.15 M NaCl, room temperature (direct titration buffer not separately)
[9] = molecular target: T2, mTLR9-ECD, GluC-cleaved; assay: competition; Cheng-Prusoff; vs Alexa 488 1668-12mer; Anisotropy: 2 or 5 nM Alexa 488 oligo, protein to 100 nM; competition in 10 mM MES pH 6.0, 0.15 M NaCl, room temperature (direct titration buffer not separately)

- stoichiometry N [1]: 2
Molecule: mouse TLR9 ectodomain, uncleaved (without proteolytic activation) (from UniProt Q9EQU3 26-818) (domain or fragment)

Molecule: TCCATGACGTTCCTGATGCT (ssDNA) [1668 (Alexa 488)]
- Kd [2]: 12 nM
- Kd [3]: 2.8 nM
- Kd [4]: 40 nM

Molecule: CCTGGATGGGAA (ssDNA) [4084 (printed 4048 in Table 1; Alexa 488)]
- Kd [5]: 29 nM

Molecule: TCCATGACGTTCCTGATGCT (ssDNA) [1668, unlabeled]
- binding result [6]: binds

Molecule: TCCTTTCGTTTTTTTTTTTTTTT (ssDNA) [minM (Alexa 488)]
- Kd [3]: 3.2 nM

Molecule: CATGACGTTCCT (ssDNA) [1668-12mer (Alexa 488)]
- Kd [7]: 11 nM

Molecule: CATGACGTTCCT (ssDNA) [1668-12mer, unlabeled]
- IC50 [8]: ~10 nM
- Ki [9]: 8 nM
